Laboratory results taken from PMC9236144 (Molecular Biology of the Cell, 2022).

Molecular target: Bni1FH1C (Bni1 residues 1227-1953) (S. cerevisiae, UniProt P41832 1227-1953)
Assay: fluorescence polarisation

Chain of Bni1FH1C (Bni1 residues 1227-1953) (P41832 1227-1953): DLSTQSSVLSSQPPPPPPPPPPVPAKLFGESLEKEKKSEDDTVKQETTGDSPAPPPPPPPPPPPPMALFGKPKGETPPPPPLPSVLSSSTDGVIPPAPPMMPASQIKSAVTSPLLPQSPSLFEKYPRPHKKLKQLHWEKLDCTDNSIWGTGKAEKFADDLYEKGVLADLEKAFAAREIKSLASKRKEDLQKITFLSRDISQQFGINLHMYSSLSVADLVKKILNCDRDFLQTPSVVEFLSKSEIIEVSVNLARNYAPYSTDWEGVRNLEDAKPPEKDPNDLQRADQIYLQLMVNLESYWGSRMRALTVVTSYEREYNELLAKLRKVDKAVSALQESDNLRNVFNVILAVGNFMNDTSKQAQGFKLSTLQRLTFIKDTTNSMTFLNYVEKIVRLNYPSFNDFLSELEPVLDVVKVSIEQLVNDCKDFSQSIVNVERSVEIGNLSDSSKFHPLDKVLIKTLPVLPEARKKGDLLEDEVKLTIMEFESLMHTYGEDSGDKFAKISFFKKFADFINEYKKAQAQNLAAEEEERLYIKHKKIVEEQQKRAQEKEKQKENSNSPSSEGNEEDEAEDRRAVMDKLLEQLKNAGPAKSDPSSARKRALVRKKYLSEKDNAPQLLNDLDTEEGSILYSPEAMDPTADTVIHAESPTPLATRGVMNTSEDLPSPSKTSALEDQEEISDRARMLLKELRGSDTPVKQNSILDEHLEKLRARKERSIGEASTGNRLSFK

- binding result: binds
B1: Bud6C (Bud6 residues 550-789) (domain or fragment, S. cerevisiae, UniProt P41697 550-788, looked up)
chain: AKNSSNRMYMEKSQTELGDLSDTLLSKVDDLQDVIEIMRKDVAERRSQPAKKKLETVSKDLENAQADVLKLQEFIDTEKPHWKKTWEAELDKVCEEQQFLTLQEELILDLKEDLGKALETFDLIKLCCEEQEKNPSRSKSNPILPIMRPGTFNQVREQVMVAVQSLNPDHDSRVEAIDKAEKMWEMERKLKASNEFDDELENFVGNSNLKKSGGFEEVERIRKQKDEANLRAYFGPGFT
